Laboratory results published in patent US20200095569A1.

Key:
[1] = target: NLS-iLID-iLID-GFP-ferritin (Gallus gallus; human) (UniProt P02794); assay: cell-based or functional assay
[2] = target: NLS-iLID-GFP-ferritin (Gallus gallus; human) (UniProt P02794); assay: cell-based or functional assay

- mCherry fluorescence at core based droplets after light activation (live cell confocal imaging) [1]: 15 s
- mean mCherry intensity in locally activated droplets relative to nucleoplasm [2]: 100 fold
Substance: FUS(1-214)-mCherry-sspB (from UniProt P0AFZ3 6-116)
